# From patent US20220306765A1 (SUZHOU TRANSCENTA THERAPEUTICS, published 2022)
# Key:
# [1] = target: T1, human CLDN18.2 (human); assay: FACS, HEK293-CLDN18.2 cells
# T1 construct: also called hCLDN18.2; Claudin-18 splice variant 2
# [2] = target: T1, human CLDN18.2; assay: FACS, NUGC4 cells
# [3] = target: T2, human CLDN18.1 (human, UniProt P56856 1-261); assay: FACS, HEK293-CLDN18.1 cells
# T2 construct: on HEK293-CLDN18.1 cells; also called Claudin-18 splice variant 1; NP_057453.1
# [4] = target: human CLDN18.2-mRFP G65P (human); assay: FACS, transfected HEK293, 10 µg/ml antibody;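 also: antibody binding read by flow cytometry with a FITC-labelled anti-human IgG secondary, gated on RFP-positive cells, each mutant signal expressed against wild-type CLDN18.2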
# Chain of human CLDN18.2-mRFP G65P (human) (chain, as listed by the source G65P G65P limits assumed): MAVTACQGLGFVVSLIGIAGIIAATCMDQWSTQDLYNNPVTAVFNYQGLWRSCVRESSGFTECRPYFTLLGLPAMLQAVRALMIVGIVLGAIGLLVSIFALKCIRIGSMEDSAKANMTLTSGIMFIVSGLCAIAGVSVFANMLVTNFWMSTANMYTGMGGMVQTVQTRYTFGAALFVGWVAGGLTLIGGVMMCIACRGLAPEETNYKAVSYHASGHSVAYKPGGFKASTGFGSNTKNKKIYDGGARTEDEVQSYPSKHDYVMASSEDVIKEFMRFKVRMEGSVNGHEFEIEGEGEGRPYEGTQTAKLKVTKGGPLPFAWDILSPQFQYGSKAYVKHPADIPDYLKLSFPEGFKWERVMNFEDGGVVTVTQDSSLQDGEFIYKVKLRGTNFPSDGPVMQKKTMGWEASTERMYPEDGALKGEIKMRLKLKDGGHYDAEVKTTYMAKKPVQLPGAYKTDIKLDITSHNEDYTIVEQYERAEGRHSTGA
# Description: (§1) The transfected HEK293-CLDN18.2 or HEK293-CLDN18.1 cell were resuspended in PBS with 2% BSA at density of 10\hat{ }5/well, 100 μl/well. […] Next, cells were washed 3 times by FACS washing buffer and incubated with 100 μl/well goat anti-hIgG (H+L)-FITC (1:200 dilution) at 4° C. for another 30 min. Finally, cells were washed 3 times by FACS washing buffer and analyzed by Flow Cytometry. To analyze binding to CLDN18.2 transfected cells, the RFP positive cells were used for control gating.
# [5] = target: human CLDN18.2-mRFP Q29M (human); assay: FACS, transfected HEK293, 10 µg/ml antibody;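 also: antibody binding read by flow cytometry with a FITC-labelled anti-human IgG secondary, gated on RFP-positive cells, each mutant signal expressed against wild-type CLDN18.2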
# Chain of human CLDN18.2-mRFP Q29M (human) (chain, as listed by the source Q29M Q29M limits assumed): as the sequence (chain, as listed by the source G65P G65P limits assumed) above, with Q29M, P65G counted along it
# Description: as §1
# [6] = target: human CLDN18.2-mRFP N45Q (human); assay: FACS, transfected HEK293, 10 µg/ml antibody;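 also: antibody binding read by flow cytometry with a FITC-labelled anti-human IgG secondary, gated on RFP-positive cells, each mutant signal expressed against wild-type CLDN18.2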
# Chain of human CLDN18.2-mRFP N45Q (human) (chain, as listed by the source N45Q N45Q limits assumed): as the sequence (chain, as listed by the source G65P G65P limits assumed) above, with N45Q, P65G counted along it
# Description: as §1
# [7] = target: human CLDN18.2-mRFP A42S (human); assay: FACS, transfected HEK293, 10 µg/ml antibody;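 also: antibody binding read by flow cytometry with a FITC-labelled anti-human IgG secondary, gated on RFP-positive cells, each mutant signal expressed against wild-type CLDN18.2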
# Chain of human CLDN18.2-mRFP A42S (human) (chain, as listed by the source A42S A42S limits assumed): as the sequence (chain, as listed by the source G65P G65P limits assumed) above, with A42S, P65G counted along it
# Description: as §1
# [8] = target: human CLDN18.2-mRFP N37D (human); assay: FACS, transfected HEK293, 10 µg/ml antibody
# Chain of human CLDN18.2-mRFP N37D (human) (chain, as listed by the source N37D N37D limits assumed): as the sequence (chain, as listed by the source G65P G65P limits assumed) above, with N37D, P65G counted along it
# Description: as §1
# [9] = target: human CLDN18.2-mRFP E56Q (human); assay: FACS, transfected HEK293, 10 µg/ml antibody
# Chain of human CLDN18.2-mRFP E56Q (human) (chain, as listed by the source E56Q E56Q limits assumed): as the sequence (chain, as listed by the source G65P G65P limits assumed) above, with E56Q, P65G counted along it
# Description: as §1
# [10] = target: human CLDN18.2-mRFP L69I (human); assay: FACS, transfected HEK293, 10 µg/ml antibody
# Chain of human CLDN18.2-mRFP L69I (human) (chain, as listed by the source L69I L69I limits assumed): as the sequence (chain, as listed by the source G65P G65P limits assumed) above, with P65G, L69I counted along it
# Description: as §1
# [11] = target: human CLDN18.2-mRFP Q47E (human); assay: FACS, transfected HEK293, 10 µg/ml antibody
# Chain of human CLDN18.2-mRFP Q47E (human) (chain, as listed by the source Q47E Q47E limits assumed): as the sequence (chain, as listed by the source G65P G65P limits assumed) above, with Q47E, P65G counted along it
# Description: as §1
# [12] = target: T3, human CLDN18.2-mRFP1, wild-type (human); assay: FACS, transfected HEK293, 10 µg/ml antibody
# T3 construct: human CLDN18.2 (amino acid 1-261) fused to mRFP1 (amino acid 1-225), transiently expressed in HEK293 cells; also called wild-type human CLDN18.2-mRFP
# Description: as §1
# [13] = target: T1, human CLDN18.2; assay: FACS, HEK293-CLDN18.2 cells; remark: listed apart in the source
# Description: (§2) Log-phase HEK293-CLDN18.2 and NUGC4 cells were re-suspended in PBS. After 3× cell wash by using FACS washing buffer (PBS+2% FBS), 100 μl/well diluted hybridoma Abs with a range from 400 nM to 0.002 nM were added into each well for incubation at 4° C. for 30 min. Again, cells were washed 3 times by using FACS washing buffer and then incubated with 100 μl/well goat anti-mIgG-FITC (1:400 dilution) at 4° C. for another 30 min. After a final 3× wash using FACS washing buffer, cells were analyzed by flow Cytometry.
# [14] = target: T2, human CLDN18.1; assay: FACS, hybridoma supernatant, HEK293-CLDN18.1 cells
# Description: Log-phase CLDN18.1 expressing HEK293-CLDN18.1 cells were resuspended in PBS at a density of 10\hat{ }5/100 μl per well. After 3× cell wash by using FACS washing buffer (PBS+2% FBS), 100 μl/well hybridoma supernatant was added into each well for incubation at 4° C. for 30 min. Again, cells were washed 3 times by using FACS washing buffer and then incubated with 100 μl/well goat anti-mIgG-FITC (1:400 dilution) at 4° C. for another 30 min. After a final 3× wash using FACS washing buffer, cells were analyzed by flow Cytometry.
# [15] = target: T1, human CLDN18.2; assay: flow cytometry on NUGC4 cells, goat anti-mIgG-FITC
# Description: as §2
# [16] = target: T1, human CLDN18.2; assay: flow cytometry on HEK293-CLDN18.2 cells, goat anti-mIgG-FITC; unit taken from the concentration axis
# Description: as §2
# [17] = target: T1, human CLDN18.2; assay: flow cytometry on HEK293-CLDN18.2 cells; unit taken from the concentration axis
# Description: as §2
# T2 sequence (P56856 whole entry, canonical isoform): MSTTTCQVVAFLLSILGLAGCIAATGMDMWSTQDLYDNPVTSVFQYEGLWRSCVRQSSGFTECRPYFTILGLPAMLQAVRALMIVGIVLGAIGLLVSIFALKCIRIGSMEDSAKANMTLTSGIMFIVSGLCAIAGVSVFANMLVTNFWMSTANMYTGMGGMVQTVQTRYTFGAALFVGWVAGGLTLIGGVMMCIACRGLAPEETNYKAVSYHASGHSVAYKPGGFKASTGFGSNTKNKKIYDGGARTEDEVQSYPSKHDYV
binder,measurement,setting,value
"7C12-C (antibody, human IgG1, V domains shown, also called chimeric 7C12) VH: EFQLQQSGPELEKPGASVRISCKTSGYSFTGYNMNWVKQSNGESLEWIGNIDPYYGATRYNQKFKGKATLTVDKSSSTAYMQLKSLTSEDSAVYYCARSYYGNAFDYWGQGTTLTVSS VL: DIVMTQSPSSLTVTAGEKVTMSCKSSQSLLNSGNQKNYLTWYQQKPGQPPKLLIYWASTRESGVPDRFTGSGSGTDFTLTISSVQAEDLAVYYCQNDYSFPFTFGSGTKLEIK",EC50,[1],0.63 µg/mL
same,EC50,[2],13 µg/mL
same,binding result,[3],no binding
same,binding percentage vs wild-type CLDN18.2,[4],79.4%
same,binding percentage vs wild-type CLDN18.2,[5],83.5%
same,binding percentage vs wild-type CLDN18.2,[6],52.1%
same,binding percentage vs wild-type CLDN18.2,[7],38.7%
same,binding percentage vs wild-type CLDN18.2,[8],80.2%
same,binding percentage vs wild-type CLDN18.2,[9],0.48%
same,binding percentage vs wild-type CLDN18.2,[10],90.4%
same,binding percentage vs wild-type CLDN18.2,[11],74.7%
same,binding percentage vs wild-type CLDN18.2,[12],100%
"11F12-C (antibody, human IgG1, V domains shown, also called chimeric 11F12) VH: EFQLQQSGPELEKPGASVRISCKTSGYSFTGYNMNWVKQSNGESLEWIGYIDPYYGGTRYNQKFKGKATLTVDKSSSTAYMQLKSLTSEDSAVYYCARSYYGNAFDYWGQGTTLTVSS VL: DIVMTQSPSSLTVTAGEKVTMSCKSSQSLLNSGNQKNYLTWYQQKPGQPPKLLIYWASTRESGVPDRFTGSGSGTDFTLTISSVQAEDLAVYYCQNDYSYPFTFGSGTKLEIK",EC50,[1],0.61 µg/mL
same,EC50,[2],10 µg/mL
same,binding result,[3],no binding
same,binding percentage vs wild-type CLDN18.2,[4],92.7%
same,binding percentage vs wild-type CLDN18.2,[5],108%
same,binding percentage vs wild-type CLDN18.2,[6],57.4%
same,binding percentage vs wild-type CLDN18.2,[7],56.9%
same,binding percentage vs wild-type CLDN18.2,[8],102%
same,binding percentage vs wild-type CLDN18.2,[9],0.27%
same,binding percentage vs wild-type CLDN18.2,[10],74.3%
same,binding percentage vs wild-type CLDN18.2,[11],86.1%
same,binding percentage vs wild-type CLDN18.2,[12],100%
"12E9-C (antibody, human IgG1, V domains shown, also called chimeric 12E9) VH: EFQLQQSGPELEKPGASVRISCKTSGYSFTGYNMNWVKQSNGESLEWIGNIDPYYGGTRYNQKFKGKATLTVDKSSSTAYMQLKSLTSEDSAVYYCARSYYGNAFDYWGQGTTLTVSS VL: DIVMTQSPSSLTVTAGEKVTMSCKSSQNLLNNGNQKNYLTWYQQKPGQPPKLLIYWASTRESGVPDRFTGSGSGTDFILTISSVQAEDLAVYYCQNDYSFPFTFGAGTKLELK",EC50,[1],0.65 µg/mL
same,EC50,[2],9.37 µg/mL
same,binding result,[3],no binding
same,binding percentage vs wild-type CLDN18.2,[4],96.7%
same,binding percentage vs wild-type CLDN18.2,[5],106%
same,binding percentage vs wild-type CLDN18.2,[6],50.8%
same,binding percentage vs wild-type CLDN18.2,[7],55.1%
same,binding percentage vs wild-type CLDN18.2,[8],103%
same,binding percentage vs wild-type CLDN18.2,[9],0.35%
same,binding percentage vs wild-type CLDN18.2,[10],58.1%
same,binding percentage vs wild-type CLDN18.2,[11],89.1%
same,binding percentage vs wild-type CLDN18.2,[12],100%
"26G6-C (antibody, human IgG1, V domains shown, also called chimeric 26G6) VH: EFQLQQSGPELEKPGASVKISCKTSGYSFTGYNMNWVKQSNGQSLEWIGHIDPYYVTTTYNQKFRGKATLTVDKSSSTAYMQLKSLTSEDSAVYYCARSFYGNAFDYWGQGTTLTVSS VL: DIVMTQSPSSLTVTAGEKVTMSCKSSQSLFNSGNQKNYLTWYQQKPGQPPKLLIYWASTRESGVPDRFTGSGSGTDFTLTISSVQAEDLAVYYCQNDYSFPFTFGSGTKLEIK",EC50,[1],1.1 µg/mL
same,EC50,[2],67.1 µg/mL
same,binding result,[3],no binding
same,binding percentage vs wild-type CLDN18.2,[4],119%
same,binding percentage vs wild-type CLDN18.2,[5],107%
same,binding percentage vs wild-type CLDN18.2,[6],88.7%
same,binding percentage vs wild-type CLDN18.2,[7],82.2%
same,binding percentage vs wild-type CLDN18.2,[8],118%
same,binding percentage vs wild-type CLDN18.2,[9],0.34%
same,binding percentage vs wild-type CLDN18.2,[10],79.7%
same,binding percentage vs wild-type CLDN18.2,[11],116%
same,binding percentage vs wild-type CLDN18.2,[12],100%
"7C12 (antibody, V domains shown, mouse hybridoma antibody; also called hybridoma antibody 7C12) VH: EFQLQQSGPELEKPGASVRISCKTSGYSFTGYNMNWVKQSNGESLEWIGNIDPYYGATRYNQKFKGKATLTVDKSSSTAYMQLKSLTSEDSAVYYCARSYYGNAFDYWGQGTTLTVSS VL: DIVMTQSPSSLTVTAGEKVTMSCKSSQSLLNSGNQKNYLTWYQQKPGQPPKLLIYWASTRESGVPDRFTGSGSGTDFTLTISSVQAEDLAVYYCQNDYSFPFTFGSGTKLEIK",EC50,[13],1.08 µg/mL
same,binding result,[14],no binding
same,EC50 (read off the curve),[15],~0.5 µg/mL
same,EC50,[16],0.417 µg/mL
"11F12 (antibody, V domains shown, mouse hybridoma antibody; also called hybridoma antibody 11F12) VH: EFQLQQSGPELEKPGASVRISCKTSGYSFTGYNMNWVKQSNGESLEWIGYIDPYYGGTRYNQKFKGKATLTVDKSSSTAYMQLKSLTSEDSAVYYCARSYYGNAFDYWGQGTTLTVSS VL: DIVMTQSPSSLTVTAGEKVTMSCKSSQSLLNSGNQKNYLTWYQQKPGQPPKLLIYWASTRESGVPDRFTGSGSGTDFTLTISSVQAEDLAVYYCQNDYSYPFTFGSGTKLEIK",EC50,[13],0.82 µg/mL
same,binding result,[14],no binding
same,EC50 (read off the curve),[15],~1 µg/mL
same,EC50,[16],0.605 µg/mL
"18B10 (antibody, V domains shown, mouse hybridoma antibody; also called hybridoma antibody 18B10) VH: EFQLQQSGPELEKPGASVRISCKTSGYSFTGYNMNWVKQSNGESLEWIGNIDPYYGGTSYNQKFKGKATLTVDKSSSTAYMQLKSLTSEDSAVYYCARMYHGNAFDYWGQGTTLTVSS VL: DIVMTQSPSSLTVTAGEKVTMSCKSSQSLLNSGNLKNYLTWYQQKPGQPPKLLIYWASTRKSGVPDRFTGSGSGTDFTLTLSSVQAEDLAVYYCQNDYSYPLTFGAGTKLELK",EC50,[13],0.81 µg/mL
same,binding result,[14],no binding
"18B10-HbLa (antibody, human IgG1, kappa, V domains shown, humanized 18B10, human IgG1 / kappa) VH: QVQLVQSGAEVKKPGASVKVSCKASGYSFTGYNMNWVRQAPGQGLEWMGNIDPYYGGTSYNQKFKGRVTLTIDKSTSTVYMELSSLRSEDTAVYYCARMYHGNAFDYWGQGTTVTVSS VL: DIVMTQSPDSLAVSLGERATINCKSSQSLLNSGNLKNYLTWYQQKPGQPPKLLIYWASTRKSGVPDRFSGSGSGTDFTLTISSLQAEDVAVYYCQNDYSYPLTFGGGTKVEIKR",EC50,[17],1.31 µg/mL
"18B10-HaLb (antibody, human IgG1, kappa, V domains shown, humanized 18B10, human IgG1 / kappa) VH: QVQLVQSGAEVKKPGASVKVSCKASGYTFTGYNMNWVRQAPGQGLEWMGNIDPYYGGTSYNQKFKGRVTMTIDKSTSTVYMELSSLRSEDTAVYYCARMYHGNAFDYWGQGTTVTVSS VL: DIVMTQSPDSLAVSLGERATMNCKSSQSLLNSGNLKNYLTWYQQKPGQPPKLLIYWASTRKSGVPDRFTGSGSGTDFTLTISSLQAEDVAVYYCQNDYSYPLTFGGGTKVEIKR",EC50,[17],1.27 µg/mL
"18B10-HbLb (antibody, human IgG1, kappa, V domains shown, humanized 18B10, human IgG1 / kappa) VH: QVQLVQSGAEVKKPGASVKVSCKASGYSFTGYNMNWVRQAPGQGLEWMGNIDPYYGGTSYNQKFKGRVTLTIDKSTSTVYMELSSLRSEDTAVYYCARMYHGNAFDYWGQGTTVTVSS VL: DIVMTQSPDSLAVSLGERATMNCKSSQSLLNSGNLKNYLTWYQQKPGQPPKLLIYWASTRKSGVPDRFTGSGSGTDFTLTISSLQAEDVAVYYCQNDYSYPLTFGGGTKVEIKR",EC50,[17],1.2 µg/mL
"18B10-HcLa (antibody, human IgG1, kappa, V domains shown, humanized 18B10, human IgG1 / kappa) VH: QVQLVQSGAEVKKPGASVKVSCKASGYSFTGYNMNWVKQAPGQGLEWIGNIDPYYGGTSYNQKFKGRVTLTIDKSTSTVYMELSSLRSEDTAVYYCARMYHGNAFDYWGQGTTVTVSS VL: DIVMTQSPDSLAVSLGERATINCKSSQSLLNSGNLKNYLTWYQQKPGQPPKLLIYWASTRKSGVPDRFSGSGSGTDFTLTISSLQAEDVAVYYCQNDYSYPLTFGGGTKVEIKR",EC50,[17],1.39 µg/mL
"18B10-HcLb (antibody, human IgG1, kappa, V domains shown, humanized 18B10, human IgG1 / kappa) VH: QVQLVQSGAEVKKPGASVKVSCKASGYSFTGYNMNWVKQAPGQGLEWIGNIDPYYGGTSYNQKFKGRVTLTIDKSTSTVYMELSSLRSEDTAVYYCARMYHGNAFDYWGQGTTVTVSS VL: DIVMTQSPDSLAVSLGERATMNCKSSQSLLNSGNLKNYLTWYQQKPGQPPKLLIYWASTRKSGVPDRFTGSGSGTDFTLTISSLQAEDVAVYYCQNDYSYPLTFGGGTKVEIKR",EC50,[17],1.22 µg/mL
"59A9 (antibody, V domains shown, mouse hybridoma antibody; also called hybridoma antibody 59A9) VH: QITQKESGPGILQPSQTLSLTCSLSGFSLSTYFIGVGWIRQPSGKGLEWLAHIWWNDNKYYNTALKSRLTISKDTSNNQVFLKIASVDTADTATYYCARMGSGAWFTYWGQGTLVTVSA VL: DIVMTQSPSSLTVTAGEKVTMSCKSSQSLLNSGNQKNYLTWYQQKPGQPPKLLIYWASTRESGVPDRFTGSGSGTDFTLTISSVQAEDLAVYYCQNDYYYPLTFGSGTKLEIK",EC50,[13],0.51 µg/mL
same,binding result,[14],no binding
